The DeepSol protein solubility set

Test: soluble on expression in E. coli; label from the status in PepcDB or PDB records

Soluble on expression in E. coli, not soluble:
MGRTQPCGGSCISSTYTLKKNRPCGWSAPPGSRILNQQPQGWPHNQTGCNVHKKIVVPSATDMATRFTQDSFVFDCLSMYYVIDDPWAENCLAAGVNATNVTFGTEQPWDIVLRDFDSGLEKIERSPYLALATNRQEIDAANKQGKLAVIIGTQGSAMVDLEFHRLRTMHRLGMRYFGLAYTGPTMFADGCGESRNAGLSFAGIELIDACNDLGLILDLSHVGHRSREETVARSRFPVCTHSNSYALNPNDRNTTDETARAIRAKGGIMGICGLPKTVHPENATLNELLDHADHWVKTIDAAHVGFGLDFVEAYKSDRSTMPAASRLWRTRRPDIFGTVEEFHLQDYPLGIASIKQLPNLTQGLFDRGYAEKEVAGIIGGNWLRHFTEVYG
MITLPTGTKIWIIAGITDMRCGFNGLASKVQNTLKDDPFSGHIFVFRGRSGKMVKILWADRDGLCLFAKRLERGRFVWPVTREGKVHLTPAQLSMLLEGIAWPHPKRTERPGIRI
MATKITINVTNNSTSTQNFFFFQQPAVYSGGPKVYTNSLYSQTLLPYATSGSVLSFTMILQYYAGVQQQVDPPQIGQPSGQLGAIQPIELTPASGGTPTKNTTNMTVDPSLGLSVPVSTDGPQAGSFRIVTPVYDPVLMNYSAGSAVQSLTGAITLSNFVTAQPNTNLDCQPIIKFYVQTGTYTAGTVMNFTSSSVGAALCDATPGFTTFNVSYNPNGTWTVKNMALSQLANGSRGLLEKSSFTTELNAAAQIAEVLNEAGTAVVSTGLAANFLRPVTVTNLTAPGAIIRNRDYQVGPVDGRHLGLTCTDVAGNTAVFD
MGSDKIHHHHHHMKADFDVLIIGAGLSGIGMACHLAEACPDKRVGILERRSAIGGTWDLFRYPGIRSDSDMFSFGYKFRPWHELKVLADGPAIRRYIADTAREYGVDKSIRFGLKVLRASWSSEDRSWTVTVQQEDSHETHSLTCKFLISCTGYYNYDHGYRPDFTGLERFQGICVHPQHWPQDLDYHGKRVIVIGSGATAVTLVPSMAGKASHVTMLQRSPSYVFSVPAYDKISAVLQKMLPASWVFGLARWRNIRLQRFIYRAARRWPQRVRAWLLSHVEQQLGHGADLRHFSPEYNPWDQRLCAVPDGDLFKAIREGKASVVTDQIDTFTETGVRLKSGRRLDADIIVTATGLQLQSLGGMEVQVDGQPRHASSLMTYKSVLMQDVPNMAHLFGYTNAPWTLKVDLAASYICRLLDHMDRHEYEVVTPGAPAGEMLDETVMDSLQSGYVQRGRNVLPRQGRKLPWRVVHNFEADRDMLTRHPVSDPALAFVRAATTARTGKASELVATRMDGTAV
MAYLERAYFGLQCFWGESAWAKLKGVVVTRVGYAGGKQPNPTYKNIKDHTEITEITFDPKVIEYSKLTNFFWKHHNPAERRKKQYQSAILYVNDDQKKVAEETLKVAKDKHGDIETYIEPLDKFYQAEDYHQKYWFRQKKILFDELSLLDTQVAEGELATKLNAYCAGFQDFHDLERLAKEYGLKDSFVNKVKDYALSGGDPRNCHA
MKEETFYLVREDVLPDAMRKTLEVKKLLDRKKADSVADAVQKVDLSRSAFYKYRDAVFPFYTMVKEQIITLFFHLEDRSGALSQLLQAVADSGSNVLSIHQTIPLQGRANVTLSISTSAMEEDIHTLMNKLRKFDFVEKVEILGSGA

Soluble on expression in E. coli, soluble:
MSLNHHPIIYLVDHQKDARAALSKLLSPLDVTIQCFASAESFMRQQISDDAIGMIIEAHLEDKKDSGIELLETLVKRGFHLPTIVMASSSDIPTAVRAMRASAADFIEKPFIEHVLVHDVQQIINGAKEGHHHHHH
MYQVVKMFGDWEPWWFIEGWEEDITEIAEYDTLSEALLYFQEEWDRGQEKWPYFQSKSSLLATFWSIKEKRWCEECDEYLQQYHSLMLLKEWQEIPKEESIERFEVFNKIAELPSACSLNLLEHHHHHH
MTVSPVPSPKGRVLIAGATGFIGQFVATASLDAHRPTYILARPGPRSPSKAKIFKALEDKGAIIVYGLINEQEAMEKILKEHEIDIVVSTVGGESILDQIALVKAMKAVGTIKRFLPSEFGHDVNRADPVEPGLNMYREKRRVRQLVEESGIPFTYICCNSIASWPYYNNIHPSEVLPPTDFFQIYGDGNVKAYFVAGTDIGKFTMKTVDDVRTLNKSVHFRPSCNCLNINELASVWEKKIGRTLPRVTVTEDDLLAAAGENIIPQSVVAAFTHDIFIKGCQVNFSIDGPEDVEVTTLYPEDSFRTVEECFGEYIVKMEEKQPTADSAIANTGPVVGMRQVTATCA
